Data set [1] can be described thus: pNPA method esterase (carboxylesterase) activity assay of spore productions. The data set is classed as biochemical. The note with it: 30° C. for 30 minutes, absorbance at 400. On the procedure:
Each of the identified enzymes were evaluated for esterase activity assay using pNBA method described below. Determination of carboxylesterase activity of cargo enzyme in Bacillus thuringiensis spore productions or of free enzyme productions. Three active carboxylesterases cloned into pBCm (Bt EO) and pET28a (E. coli BL21) systems: pnbA (B. subtilis), PytH2 (Sphingobium wenxiniae strain), and MsE1 (Methylobacterium sp). p-Nitrophenyl acetate was the substrate in assays for esterase activity. The hydrolysis of p-nitrophenyl acetate releases p-nitrophenol and acetate, and while p-nitrophenyl acetate is colorless, p-nitrophenol is yellow.
6 mg p-Nitrophenyl acetate (pNPA, CAS #830-03-5, MW: 181.1 g/mol) was weighed and dissolved in 1 mL methanol (CAS #67-56-1, MW: 32.04 g/mol). Stored at −20° C. and kept on ice when preparing reactions.
8.0 g sodium chloride (NaCl, CAS #7647-14-5, MW: 58.44 g/mol), 1.44 g sodium phosphate dibasic was dissolved (Na2HPO4, CAS #7558-79-4, MW: 141.96 g/mol), and 0.24 g potassium phosphate monobasic (KH2PO4, CAS #7778-77-0, 136.09 g/mol) in 800 mL DI H20, then adjust pH to 7.4 using hydrochloric acid (HCl, CAS #7647-01-0, MW: 36.46 g/mol). Make 100 mL aliquots and autoclave.
Esterase from rabbit liver (CAS #9016-18-6, Sigma E0887-powder). Store at −20° C. To prepare a stock dissolve 1 mg in 1 mL PBS, kept on ice when using.
Up to 1 mL spore production was pelleted up for 5 min at max speed. Supernatant was discarded without disturbing spore pellet and suspend pellet in ice-cold PBS. Spores kept suspended on ice until use.
The assay was run at 30° C. for 30 minutes. The assay was shaken continuously. Activity was read on (A) 400 BioTek Synergy/HTX microplate reader was used. The results of pNPA hydrolysis are shown in Table 3 depicting carboxylesterase enzyme activity for each of the five strains using pNPA hydrolysis.

The subject of data set [2] is scuds (Hyalella azteca). In words: Scud bioassay: scuds exposed to permethrin with or without enzyme, kill counts. The class given is in vivo. The settings on record: scuds exposed to permethrin plus degrading enzyme versus permethrin alone. On the procedure:
A standard of permethrin (CAS Number […]) was prepared and analyzed by HPLC as a control, then different concentrations of enzymatic solution were added to the standard to find an effective concentration (of pPytH2) needed to degrade the permethrin. After degradation was confirmed through HPLC analysis by the qualification and quantitation of permethrin hydrolysis byproducts, a bioassay was performed with crustaceans (scuds), who are also highly sensitive to pyrethroid toxicity. In the bioassay, scuds were exposed to two different environments. Permethrin was added to the first environment to get a scud kill count without the presence of the enzyme as a control and the next environment was evaluated by adding both permethrin and the degrading enzyme to the scud environment and kill counts were compared.
The next step was to test the enzymatic hydrolysis of permethrin in feline blood (cat serum). […] After the cat serum control was analyzed three different concentrations of the enzyme were introduced to the cat serum control and then analyzed by HPLC. […]
• 37 degree C. • 18 hr • Shanking 1000 rpm Transferred 20 μL rxn mix [4 μg] to 100 mL [containing 10 scuds] At time, 24 h and 48 h the ten scuds were scored: A=Alive and Moving actively BA=Barely Alive—Difficulty swimming away; only legs are moving D=Dead—Not moving at all The results of which are shown in FIGS. 8 and 9.

A short description of data set [3]: Characterisation of purified recombinant PytH2 carboxylesterase on p-nitrophenyl esters. The data set is classed as biochemical. The method, then:
Protein is a carboxylesterase from Sphingobium wenxiniae produced by PytH2 recombinant, expressed in E. coli BL21 (DE3) IUBMB: 3.1.1.88 CAS: 9016-18-6. The Chemical Composition of the carboxylesterase has Chemical purity: >90% buffer of 10 mM phosphate (pH 7.4), 2.7 mM KCI, 137 mM NaCI. Post translational procedures produced in a protease deficient E. coli strain and optimized for synthesis. The protein Appearance: clear, colorless solution:
Unit definition: One unit is defined as the amount of enzyme required to generate 1 μmol/min of 4-p-nitrophenol from 4-nitrophenyl-L-acetate at 30° C. and pH 7.4. Specific activity: 15±3 μ/mg
The enzyme is also deactivated by surfactant compounds such as SDS.
An esterase gene (PytH2) of Sphingobium wenxiniae containing an open reading frame (ORF) of 873 bp. The ORF of PytH2 was expressed in Escherichia coli, under the control of the promoter T7. […] E. coli BL21(DE3)/pET28 containing PytH2 expressed a novel 31.4-kDa protein corresponding to PytH2 in an N-terminal fusion with the His-tag peptide. The recombinant Sphingobium wenxiniae PytH2 protein was purified to electrophoretic homogeneity in a one-step affinity chromatography procedure on Ni-NTA Resin. The optimum pH and temperature of the purified enzyme were 7.0 and 37 degrees C., respectively. […] It was also active on pNP-butyrate(C(4) and pNPcaproate(C(6)).

Data set [4] can be described thus: Deltamethrin degradation, HPLC. The data set is classed as biochemical. The note with it: method as for permethrin; FIG. 5. From the text:
Using the method and instruments described above for permethrin, 40% of deltamethrin was degraded by pPytH2, PytH2 esterase as shown in FIG. 5.

B1: E3: carboxylesterase PytH2 (pytH) from Sphingobium wenxiniae, amino acid SEQ. ID No. 3, DNA SEQ. ID No. 6; recombinant, His-tagged (protein, listed as Sphingobium wenxiniae)
chain: MTVTDIILIHGALNRGACYDAVVPLLEARGYRVHAPDLTGHTPGDGGHLSVVDMEHYTRPVADILARAEGQSILLGHSLGGASISWLAQHHYDKVAGLIYLTAVLTAPGITPETFVLPGEPNRGTPHALDLIQPVDEGRGLQADFSRLERLREVFMGDYPGEGMPPAEQFIQTQSTVPFGTPNPMEGRALEIPRLYEALDDVVIPIAVQRQMQKEFPGPVAVVSLPASHAPYYSMPERLAEAIADFADAPAEYRQTATKAGPDRPAGADGGRADRADLP
modifications: His tag
notes: ID No. 6; recombinant, His-tagged
As for B1, the pNPA hydrolysis in data set [1] is 26.3 ± 0.9 nmol pNPA/min/1E+8 spores. In addition, the “effect on permethrin in scud bioassay” value in data set [2] was “hydrolyzed the toxic permethrin molecule and degraded permethrin”. In data set [3], the “cofactor requirement for activity” value is listed as “does not require a cofactor” and the “stability of the enzyme” value is given as “quite stable”. Further, the “activity after heat incubation” value in data set [3] (after incubation at 70° C.) is “inactive”. In addition, the “effect of metal ions on the enzyme” value in data set [3] (metal ions, can recover activity) is listed as “strongly inhibited”. Further, the Specific activity in data set [3] (one unit = 1 μmol/min 4-p-nitrophenol from 4-nitrophenyl-L-acetate at 30° C. and pH 7.4) was determined as 15±3 μ/mg. Further, the “substrate preference among pNP (p-nitrophenyl) esters: pNP-acetate (C(2))” value in data set [3] (pNP-acetate) is given as “best substrate”. Besides, the “activity on pNP-butyrate” value in data set [3] (pNP-butyrate(C(4))) is “active”. Also, the “activity on pNPcaproate” value in data set [3] (pNPcaproate(C(6))) is listed as “active”. Also, in data set [3] (purified enzyme), the “optimum pH” value is recorded as 7.0 and the optimum temperature stood at 37 degrees C. The “effect of surfactant compounds on the enzyme” value in data set [3] (surfactant compounds such as SDS) is listed as “deactivated”. Also, the deltamethrin degraded in data set [4] came out at 40%.

The values are drawn from US20220047684A1, “ENZYMES AND METHODS FOR PREVENTING AND TREATING […] IN ANIMALS” (Ecto Development Corporation, priority 2020, published 2022).
